Source: the nanobody polyreactivity screen of Harvey et al. (2022)

Test: yeast display, Sf9 membrane polyspecificity reagent, FACS + sequencing; frameworks hold sequencing errors
Summary of the method: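 After 36–48 hours of galactose induction, yeast (Saccharomyces cerevisiae BJ5465) displaying a synthetic nanobody library were stained at 4 °C for 1 hour with 10% biotinylated, detergent-solubilized Sf9 membrane reagent. Streptavidin microbeads enriched the stained cells before FACS sorting into low and high (top ~1%) gates on anti-HA and streptavidin fluorescence. Each clone's polyreactivity label reflects its gate of origin.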

| Sequence | polyreactivity (PSR sort gate) |
| --- | --- |
| KVQLVESGGGLVQAGGSLRLSCAASGFTFEGYAMGWYRQAPGKEMELVAAISSNGGRTYYADSVKGRFTISRDNAKNTVYLQMNSLKPEDTAVYYCNARRAYSGPDYDYYHGRRYDYWGQGTQVTVSS | low polyreactivity |
| KVQLVESGGGLVQAGGSLRLSCAASGGIFYYYAMGWYRQAPGKERELVAAISSGGGTNYADSVKGRFTISRDNAKNTVYLQMNSVKPEDTAVYYCAADQGRDTGYDYWGQGTQVTVSS | low polyreactivity |
| KVQLVESGGGLVQAGGSLRLSCAASGLIFPAYTIGWYRQAPGKEREMVAAISRSGGSTYYADSVKGRFTISRDNAKYTVYLEMNSLKPEDTALYYCAAGYPGYDSYYKFYYWGQGTQVTVSS | high polyreactivity |
| KVQLVESGGGLVQAGGSLRLSCAASGLILRRYAMGWSRQAPGKEREFVARITWSGSRTYYADSVKGRFTISRDYGKNTVYLQMKSLKPEDSAFYYCAAVGRLARRDYWGQGTQVSVSS | high polyreactivity |
| KVQLVESGGGLVQAGGSLRLSCAASGLTFSFYAMGWYRQAPGKERELVAAITYSGDSTYYADSVKGRFTISRDNAKNTVYLQLNSLKPEDTAVYYCAAYVYQTPHSLHIYEYWGQGTQVTVSS | low polyreactivity |
| KVQLVESGGGLVQAGGSLRLSCAASGRIFYYNAMGWYRQAPGKERELVAVITGGGSTNYADSVKGRFTISRDNAKNTVYLQMNSLKPEDTAGYYCAARRAWGTKYHGYDYWGQGTQVNVSS | low polyreactivity |
| KVQLVESGGGLVQAGGSLRLSCAASGSIFTYYAMGWDRQAPGKERELVAAISIGGRTDYADSVKGRFTISRDNAKNTVSLQMNSLKPEDTAVYYCVAKGHLDSGGYEYYYWRQGTQVTVSS | low polyreactivity |
| KVQLVESGGGLVQAGGSLRLSCAASGSTFSLYAMGWYRQAPGKERELVASIRWSGGRTYYADSVKGRFTISRDNAKNTVYLQMKSLKPEDTAVYYCAAAWRYGYGYWGQGTQVTVSS | high polyreactivity |
| KVQLVESGGGLVQAGGSLRLSCAASGYIVSYYDMGWYRQAPGKERELVAAITAGVAGTYYADSVKGRLTISRDNAKNSVYLQMNSLTPEDTAVFYCAADRYITTVVRMYYSGQGTQVTVSS | low polyreactivity |
| KVQLVESGGGLVQAGGSLRLSCADSGIFRYYAMGWYRQAPGKEREFVAAMTRGGSTNYADSVKGRFTISRDNAKNSVYLQMNSLKPEDTEVYYCARDGYREFDWGQGTQVTVSS | high polyreactivity |
| KVQLVESGGGLVQAGGSLRLSCPASGITFYRYVMGWYRQAPGTERELVAAISSGGRTYYADSVKGRFTISRDNAKNTVYLQMNSLKPEDNAVYYCNRAAFQTRYESWGQGTQVTVSS | high polyreactivity |
| KVQLVESGRGLVQAGGSLLLICAASGSTFVDYAMGWYRQAPGKERELVAGINVSGGSTYYSDYVKGSFTISRDNSNNPVYLQMNSLNPEDTAVYYCAKVVSNRLALPAWDYNYWGQGTKVTVSS | low polyreactivity |
| KVQLVESGVGLVQAGGSLRLSCAPSGSIFKYYAMGWYRQAPGKERELVAAITDRGSSTYYADSVKGRFTISRDNAKTTVYLQMNSLKPEDTAVYYCAAETYVCIYWPYVKYYYWGQGTQVNVSS | high polyreactivity |
| KVQLVESVGGLVQAGGSLRLSCAASGRIFGVNAMGWYRQAPGKERELVAAIRSGDSTNYADSVKGRFTISRDNAKNTVYLQMNSLKPEDTAVYYCATDLYFDLRYDYWGQGTQVTVSS | low polyreactivity |
| KVQVVESGGGFVQAGGSLGLSCAASGRIFGVYAMGWYTQAPGKERELVAAINYSGTRTYYADSVKGRFTISRDNGKNTVYLQMNSLKPEDSAVYYCGARRGSYSVTEYWGQGTQVNVSS | high polyreactivity |
| LVHLQESGGGLVLAGGGLRLSCAASGNIFTYVIMGWYRQPAGKERELVAAITYGTITNYADSVKGPFTISRDNAKNTVYLQMNCLKPEDTAVYHCAVQSTRIVPRHYYCGQGTQVTVSS | high polyreactivity |
| LVQHVESGGGIVQAGGSLRLTCAASGSIFASYAMGWYRLAPGKEREFVAAISRRSGSTYYSDSVKGRFTISRDYAKNTVYLQLKSLKPEDTAVYDCAGALYYGYDHYNYWGQGTQVTVSS | high polyreactivity |
| LVQHVESGGGLVKAGGSLRLTCSASGITFARYAMGWYRQAPGNERELVAAISRSVGSTYADSVKGRFTTSRDNAKNTVYLKMNSLKPEDTAVYYCHARYKSRLYPRYDYWGQGTQVTVSS | high polyreactivity |
| LVQLLESGGGLVQAGGSLRLSCAASGRIFTGYALGWDRQAPGKDRELVASITWRGASTYYADSVKGRFTISRDNAKTTVFLQKNCLNPEDTAVDYCNVGASARKAYEYWGQGTQVTVSS | high polyreactivity |
| LVQLQESAGGLVQAGGSLRLSCAASGSISVTRAMCWYRQAPGNERELVASTTGGSNNADSVNGRFTISRDNAKNTVYLQMNSLKPEDTAVYYCAAAVGVGRSGGTYDYWGQGTQVTVSS | low polyreactivity |
| LVQLQESGGGLVQAGGSLRLSCAASGTISQGGYMGWYRQAPGKERELVASINVGGSTNYADSVKGRFTISRDNAKNTVYLQMNSLKPEDNAVYYCAVWGRNRLQLSYWGQGTQVTVSS | low polyreactivity |
| LVQLVESGGGLVQAGGSLRLICAAYGSIFALNSLGWYSQAPGKERELVAAISRGDGTKYEHTVKGRFTISRDNAKTTVYLQMTSLKPEYTAVYYCAKDYWFRWRWPYNHWGLGTQVTVSS | low polyreactivity |

| Sequence | polyreactivity (PSR sort gate) |
| --- | --- |
| LVQLVESGGGLVQAGGSLRLSCAASGRIFLKYAMGWYRQSPGKERELVAAISRRGASTYYADSVKGRFTISRDYGKNSVYLLMKSLKPDDTAVYYCNARTSSGMDYWGQGTQVTVSS | high polyreactivity |
| LVQLVESGGGLVQAGGSLRLSCAASGSIFRRYAMGWYRQAPGKERELVAAISRNSGRTYYADSVKGRFTISRDNAKNTVYLQTNSLKPEDTAVYYCAKLTLSSRWYYIYDYWGQGTQVTVSS | high polyreactivity |
| PVQLQESGGGLVQAGGSLRLSCAASGNIFDADIMGWYRQAPGKERELVACIADGGSTNYADSVKGRFTISRDNAKNTVYLQMNSLKPEDTAVYYCAAIAYPYIPNCFDYDSDYFFRGQGTQVTVSS | low polyreactivity |
| PVQLVESGGGLVEAGGSLLLSCAASGSTFREYTMGWYRQAPGKERELVAAITNSGGSTYYADSVKGRFTISRDIAKYTVYLQMNSLKPDDTSVYYFAAEVGIVDYDYWGQGTKVTVSS | low polyreactivity |
| PVQLVESGGGLVQAGGRLRLSCASSGLTFYYYAMGWYLQSPGKESELVAALSRSGGSTYYADSVKGRFTISRDNAQNTVYLQMISLKPEDTAVYYCAAREPYEVLLYYYEDYYWGQGTQVTVSS | high polyreactivity |
| PVQLVESGGGLVQAGGSLRLSCAASGFTFDENAMGWYRQAPGITYSGASTYYADSVKGPYTISRANAQNTVYLQMNSLKPEDTAVYYCAAEVVAQMNYWGQGTQVTVSS | low polyreactivity |
| PVQLVESGGGLVQAGGSLRLSCAASGITFYRYMGWYRQAPGKERELVASITGRGGSTYYADSVKGRFTISRDNAKNTVYLQMNSLKPEDTAVYYCAAVFPTKSSTWYDFWGEGTQVTVSS | high polyreactivity |
| PVQLVESGGGLVQAGGSLRLSCAASGRTVGYAMGWYRQSPWKERELVARINRTTGSTYYADSVKGRFTISRDNAKNTVYLQMKRLKPEDTAVYYCNAKSYYYSRWSRYYCTGYYYWGQGTQVTVSS | high polyreactivity |
| PVQLVESGGGLVQAGGSLRLSCAASGSIFTAYDMGWYRQAPGKERELVAAINVSAGTTYYADSVKGRFTISRDNAKKTVYLQMISLIPEDTAVYYCAARDISLNAVGLPKEYNRDYWGQGTQVTVSS | low polyreactivity |
| PVQLVESGGGLVQAGGSLRLSCAASGSTFKRYAMGWYRQAPGKERELVAAISSGGTTYYADSVTGRFTISRDNAKNTVYLQMISLKPEDSAVYDCIARKYGWDQRILIYDYWGQGTQVTVSS | high polyreactivity |
| PVQLVESGGGLVQAGGSLRLSCAASGSTFLYSAMGWYRQAPGKERELVAGISAAGGSSYYADAVKGRFTISRDNAKNTVYIQMNSLKPEDTAVYYCNATRVVIRHSYDYWGQGTQVTVSS | high polyreactivity |
| PVQLVESGGGLVQAGGSLRLSCAASGSTIPSYAMGWYRQAPGKERELVASITYSDGTTRYADSVKGRFTISRDNAKNTVYLQMNSLKPEDTAVYYCNAVYYREGMDYWGQGTQVTVSS | low polyreactivity |
| PVQLVESGGGLVQAGGSLRLSCAASGTIFFSNAMGWYRQAPGKEREFVATITSSGVGTYYADSVKGRFTISRDNAKNTVYLQMNSLTPEDTAVYYCAADLTISYSQEYYYWGQGTQVTVSS | low polyreactivity |
| PVQLVESGGGLVQAGGSLSLICAASGRIFYMYAMRCYRPAPAKERELVAAITWSGGSTTYADSVKGRFTISRDNAKNTVYLQMNSLKPEDTSVYYCNAEGWIFPSFSPMDYWGQGTQVTVSS | low polyreactivity |
| PVQLVESGGGLVQAGGSLSLTCAASGIIFPVYAMGWYIQAPGKERELVAAITYSGDRTYYADSVKGRFTISRDNAKYTVYLQMNSLKPEDTAVDYFNARFGVWPYFYNEDDYLGQGTQVTVSS | low polyreactivity |
| PVQLVESGGGLVQAGVSLRLSGAASGFIFYYYAMGWYSQAPGKEREFVAAISQSVGSTYYADSVKGRFTISRDNANNTVYLQMNSLKPADTAVYYCNARGWIPARGWDDYYWGQGTQVTVSS | high polyreactivity |
| PVQLVETGGGLVQAGGSLRLSCAASGGIFTLYVLGWYRQPPGKERELVAAISRTGGSTYYADSVKARFTISRDNAKNTVYLQMNSLKPEDTAVYYCAADYRQPSAFYYWGQGTQVTVSS | high polyreactivity |
| PVQVVESGGVLVQAGGSRRLSCAAAGGNFYGNVMGWYRQAPGKERELVADITSVSSTYYADSVKGRFTISRDNAKNTVFLQMKRLKPEDTAVYYCAPEPDHVADSHSGYDYWGQGTQVTVSS | low polyreactivity |
| QAQLHESAGGLVQAGGCLRLSCAASGYFSKKWGMGWYRKAPGKERELVATIAKGASTYYADSMKGRFTISRDNAKYTMYRQMNSLKPEDTAVYYCGATQQDDQGLGYWGQDTQVTVSS | high polyreactivity |
| QAQLQEIGGSLVQAGGGLRLSCEASGYISVGSVMGWYRQAPSKERELVASIDQGANTNYADSVKGRFTISRDNEKNNVYLQMKSLKPEDTAVYYCATETTYILNDWGQGTQVTVSS | low polyreactivity |
| QAQLQESGGSLVQAGGGLRLSCAASGYISVGSVMGWYRQAPSKERELVASIDQGANTNYADSVKGRFTISRDNAKNNVYLQMNSLKPEDSAVYYCATETTYILNYWGQGTQVTVSS | low polyreactivity |
